# Paper PMC7325957
# Molecular target: NttE from L. pneumophila strain 130b, His6-tagged (residues 1 to 269; minus its N-terminal signal sequence) (Legionella pneumophila strain 130b)
# Assay: SEC-SAXS
substance,measurement,value
"NttE from L. pneumophila strain 130b, His6-tagged (residues 1 to 269; minus its N-terminal signal sequence) (natural protein)",stoichiometry N,2
